Key:
Assay in all cases: Crosslinking/co-immunoprecipitation/mass spectrometry (TMT quantitative proteomics) to identify irisin receptors
Type in all cases: binding
[1] = target: T1, MLO-Y4 cell surface proteins (Mus musculus, UniProt E9Q0C6); settings: co-precipitated protein Gm14569 (E9Q0C6_MOUSE)
T1 construct: endogenous in cells; host or cells: MLO-Y4
Procedure, shortened: (§1)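 Relative protein abundance came from 6-plex TMT MS3 quantitation on an Orbitrap Fusion Lumos, after in-gel trypsin digestion of Coomassie-stained SDS-PAGE lanes. Input was a Ni-NTA pulldown (250 mM imidazole elution) of lysates from murine MLO-Y4 cells. These cells were treated on ice with His-tagged irisin or adipsin (10 nM, 20 min) in serum-free medium, then crosslinked with 1.5 mM DTSSP for 30 min.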

[2] = target: T2, MLO-Y4 cell surface proteins (Mus musculus, UniProt O35143); settings: co-precipitated protein Atpif1 (ATIF1_MOUSE)
T2 construct: endogenous in cells; host or cells: MLO-Y4
T2 sequence (O35143 26-106): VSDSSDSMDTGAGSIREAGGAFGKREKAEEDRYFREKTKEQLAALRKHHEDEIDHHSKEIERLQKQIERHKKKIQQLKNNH
Procedure, shortened: as §1

[3] = target: T3, MLO-Y4 cell surface proteins (Mus musculus, UniProt P62960); settings: co-precipitated protein Ybx1 (YBOX1_MOUSE)
T3 construct: endogenous in cells; host or cells: MLO-Y4
Procedure, shortened: as §1

[4] = target: T4, MLO-Y4 cell surface proteins (Mus musculus, UniProt Q66L42); settings: co-precipitated protein Map3k10 (M3K10_MOUSE)
T4 construct: endogenous in cells; host or cells: MLO-Y4
Procedure, shortened: as §1

[5] = target: T5, MLO-Y4 cell surface proteins (Mus musculus, UniProt Q791V5); settings: co-precipitated protein Mteh2 (MTCH2_MOUSE)
T5 construct: endogenous in cells; host or cells: MLO-Y4
T5 sequence (Q791V5 1-303): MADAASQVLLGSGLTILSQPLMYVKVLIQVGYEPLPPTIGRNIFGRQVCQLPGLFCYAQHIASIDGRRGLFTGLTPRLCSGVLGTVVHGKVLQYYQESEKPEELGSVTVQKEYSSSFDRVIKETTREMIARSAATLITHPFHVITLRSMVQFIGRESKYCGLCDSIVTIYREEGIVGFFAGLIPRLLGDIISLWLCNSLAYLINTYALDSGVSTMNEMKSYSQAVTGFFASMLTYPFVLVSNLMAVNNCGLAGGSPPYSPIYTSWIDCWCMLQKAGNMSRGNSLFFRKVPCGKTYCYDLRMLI
Procedure, shortened: as §1

[6] = target: T6, MLO-Y4 cell surface proteins (Mus musculus, UniProt Q9D051); settings: co-precipitated protein Pdhb (ODPB_MOUSE)
T6 construct: endogenous in cells; host or cells: MLO-Y4
T6 sequence (Q9D051 31-359): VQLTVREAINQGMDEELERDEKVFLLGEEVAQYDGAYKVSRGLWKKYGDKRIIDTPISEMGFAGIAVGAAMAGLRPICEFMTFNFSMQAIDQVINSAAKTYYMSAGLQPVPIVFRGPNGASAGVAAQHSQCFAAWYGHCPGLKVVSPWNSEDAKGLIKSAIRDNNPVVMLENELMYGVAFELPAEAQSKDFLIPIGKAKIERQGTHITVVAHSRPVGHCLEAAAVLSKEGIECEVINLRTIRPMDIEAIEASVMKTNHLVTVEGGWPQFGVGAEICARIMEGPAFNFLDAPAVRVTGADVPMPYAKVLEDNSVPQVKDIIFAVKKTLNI
Procedure, shortened: as §1

T4 sequence (Q66L42 whole entry): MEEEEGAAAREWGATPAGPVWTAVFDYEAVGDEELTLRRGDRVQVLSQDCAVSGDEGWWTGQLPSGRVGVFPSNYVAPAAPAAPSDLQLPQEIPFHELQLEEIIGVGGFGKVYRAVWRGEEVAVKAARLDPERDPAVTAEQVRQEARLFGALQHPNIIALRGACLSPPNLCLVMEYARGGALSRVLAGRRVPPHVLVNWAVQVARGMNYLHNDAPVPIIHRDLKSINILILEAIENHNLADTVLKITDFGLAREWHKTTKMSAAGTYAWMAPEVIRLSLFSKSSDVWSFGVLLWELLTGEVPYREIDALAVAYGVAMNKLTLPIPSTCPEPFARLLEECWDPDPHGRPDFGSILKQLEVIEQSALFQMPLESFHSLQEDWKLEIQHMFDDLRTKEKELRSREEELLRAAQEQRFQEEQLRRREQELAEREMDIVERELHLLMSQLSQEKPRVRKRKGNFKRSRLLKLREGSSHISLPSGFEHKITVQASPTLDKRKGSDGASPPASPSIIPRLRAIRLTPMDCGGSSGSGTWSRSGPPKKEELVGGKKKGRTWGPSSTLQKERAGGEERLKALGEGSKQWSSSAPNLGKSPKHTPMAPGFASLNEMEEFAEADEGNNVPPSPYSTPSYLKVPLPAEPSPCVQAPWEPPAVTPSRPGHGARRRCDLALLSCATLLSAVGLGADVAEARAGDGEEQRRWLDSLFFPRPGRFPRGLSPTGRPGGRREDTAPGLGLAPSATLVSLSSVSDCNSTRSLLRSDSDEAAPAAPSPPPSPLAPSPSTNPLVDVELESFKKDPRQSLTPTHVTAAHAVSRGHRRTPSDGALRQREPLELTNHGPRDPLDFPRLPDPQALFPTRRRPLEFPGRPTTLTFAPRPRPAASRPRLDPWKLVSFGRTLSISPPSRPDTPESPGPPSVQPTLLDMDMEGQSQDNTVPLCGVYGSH
T1 sequence (E9Q0C6 whole entry): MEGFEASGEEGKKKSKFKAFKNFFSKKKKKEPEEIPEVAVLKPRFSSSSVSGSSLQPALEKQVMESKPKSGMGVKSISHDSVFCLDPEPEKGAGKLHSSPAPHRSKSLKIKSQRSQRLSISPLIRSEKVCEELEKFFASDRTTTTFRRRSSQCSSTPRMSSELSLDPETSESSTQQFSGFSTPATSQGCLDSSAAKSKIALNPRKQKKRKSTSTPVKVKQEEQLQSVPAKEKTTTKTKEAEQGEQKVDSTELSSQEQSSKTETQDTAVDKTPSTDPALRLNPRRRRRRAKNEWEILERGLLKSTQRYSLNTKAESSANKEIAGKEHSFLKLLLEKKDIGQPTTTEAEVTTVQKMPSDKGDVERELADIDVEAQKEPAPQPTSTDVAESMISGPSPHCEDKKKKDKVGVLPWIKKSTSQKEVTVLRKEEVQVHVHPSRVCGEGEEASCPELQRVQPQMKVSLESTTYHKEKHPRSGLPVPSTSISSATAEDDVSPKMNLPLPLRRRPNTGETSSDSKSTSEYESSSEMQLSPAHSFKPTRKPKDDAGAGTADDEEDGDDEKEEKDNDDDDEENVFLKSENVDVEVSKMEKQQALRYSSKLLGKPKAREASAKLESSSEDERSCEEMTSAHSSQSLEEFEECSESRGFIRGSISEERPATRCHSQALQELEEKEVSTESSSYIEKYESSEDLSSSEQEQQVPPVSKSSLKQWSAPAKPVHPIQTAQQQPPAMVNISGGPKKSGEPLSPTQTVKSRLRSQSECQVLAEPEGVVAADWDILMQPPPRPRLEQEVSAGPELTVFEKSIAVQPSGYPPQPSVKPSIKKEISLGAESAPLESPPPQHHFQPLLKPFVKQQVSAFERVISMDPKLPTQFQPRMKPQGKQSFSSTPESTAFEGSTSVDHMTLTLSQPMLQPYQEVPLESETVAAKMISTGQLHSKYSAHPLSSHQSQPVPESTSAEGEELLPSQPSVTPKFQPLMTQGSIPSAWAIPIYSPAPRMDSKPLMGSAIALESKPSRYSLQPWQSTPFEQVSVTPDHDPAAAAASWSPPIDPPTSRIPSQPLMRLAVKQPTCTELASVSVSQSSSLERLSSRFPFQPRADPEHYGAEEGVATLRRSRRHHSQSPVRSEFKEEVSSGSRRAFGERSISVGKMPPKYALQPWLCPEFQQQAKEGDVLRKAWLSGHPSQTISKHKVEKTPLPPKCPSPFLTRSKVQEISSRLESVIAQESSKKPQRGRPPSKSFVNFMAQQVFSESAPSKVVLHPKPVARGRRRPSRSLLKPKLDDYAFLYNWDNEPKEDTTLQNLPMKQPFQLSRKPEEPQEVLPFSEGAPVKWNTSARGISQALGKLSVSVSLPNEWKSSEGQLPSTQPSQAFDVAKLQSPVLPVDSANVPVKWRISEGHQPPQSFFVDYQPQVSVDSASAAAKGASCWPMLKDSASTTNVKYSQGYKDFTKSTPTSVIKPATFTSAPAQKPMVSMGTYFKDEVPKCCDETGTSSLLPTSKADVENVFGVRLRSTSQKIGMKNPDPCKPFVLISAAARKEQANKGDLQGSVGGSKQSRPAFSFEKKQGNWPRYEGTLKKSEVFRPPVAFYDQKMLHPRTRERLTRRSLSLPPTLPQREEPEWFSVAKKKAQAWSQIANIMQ
T3 sequence (P62960 whole entry): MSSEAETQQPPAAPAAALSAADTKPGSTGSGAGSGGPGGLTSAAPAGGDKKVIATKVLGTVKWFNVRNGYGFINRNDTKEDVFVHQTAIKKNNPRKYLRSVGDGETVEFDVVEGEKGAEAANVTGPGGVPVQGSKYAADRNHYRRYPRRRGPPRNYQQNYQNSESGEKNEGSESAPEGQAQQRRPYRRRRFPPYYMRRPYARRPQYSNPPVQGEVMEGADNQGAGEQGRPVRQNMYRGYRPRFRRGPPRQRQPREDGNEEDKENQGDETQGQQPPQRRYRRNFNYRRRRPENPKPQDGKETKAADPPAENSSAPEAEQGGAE

B1: irisin: secreted cleaved form of FNDC5; recombinant human/mouse irisin with C-terminal his tag produced in HEK293 cells (protein)
chain: DSPSAPVNVTVRHLKANSAVVSWDVLEDEVVIGFAISQQKKDVRMLRFIQEVNTTTRSCALWDLEEDTEYIVHVQAISIQGQSPASEPVLFKTPREAEKMASKNKDEVTMKE
modifications: left off: small tags and cut ends
notes: secreted cleaved form of FNDC5; recombinant human/mouse irisin with C-terminal his tag produced in HEK293 cells
- TMT signal-to-noise ratio [1]: 8.647
- irisin/adipsin TMT signal-to-noise ratio [1]: 0.039
- TMT signal-to-noise ratio [2]: 229.372
- irisin/adipsin TMT signal-to-noise ratio [2]: 0.505
- irisin/adipsin TMT signal-to-noise ratio [3]: 0.277
- TMT signal-to-noise ratio [4]: 3.455
- irisin/adipsin TMT signal-to-noise ratio [4]: 0.032
- TMT signal-to-noise ratio [5]: 5.766
- irisin/adipsin TMT signal-to-noise ratio [5]: 0.057
- TMT signal-to-noise ratio [6]: 123.1
- irisin/adipsin TMT signal-to-noise ratio [6]: 0.337

Reference: patent publication US20210063414A1, “METHODS FOR PREVENTING AND/OR TREATING BONE LOSS CONDITIONS BY MODULATING IRISIN” (Dana-Farber Cancer Institute, Inc., priority 2018, published 2021)
